Measurements as given in patent publication US20240117011A1.

Columns and labels:
[1] = molecular target: full-length spike B.1.617.2 (SARS-CoV-2) (UniProt P0DTC2); assay: cell-based or functional assay
[2] = molecular target: spike of variant P.1 v1 on pseudovirus; assay: cell-based or functional assay

| Substance | pseudotyped virus neutralization [1] [ng/mL] | neutralization IC50 [2] [mg/L] | neutralization, fold reduction in activity [1] [fold] |
| --- | --- | --- | --- |
| LY-CoV555 (antibody) | > 10000 | > 10 |  |
| CB6 (antibody) |  | > 10 |  |
| REGN10987 (antibody) |  |  | 4 |
